For three molecules, EC50 results are on record in patent US20200010536A1.

B1: SA-17 (antibody, V domains shown)
VH: QVQLVQSGGAVVQPGGSLRLSCVASGFTFDDYAMHWVRQAPGKGLEWVSLITLDGGRTYYADSVKGRFTISRDNSKNSLYLQMNRLRADDTGFYYCARDIKIGEAVMITVPGQHWGQGTLVTVSS
VL: QSVVTQDPGVSVALGQTVFITCQGDTLRSNYANWFQQKPGQAPVLVMYGKNNRPSGIPDRFSGSSSGNTASLTITGAQAEDEADYYCNSRDSSGNHVVFGGGTRVTVL
B2: SA-15 (antibody, V domains shown)
VH: QVQLVQSGGGVVQPGRSLRLSCAASGFSFSTYDMNWVRQAPGKGLEWLSIISYDETNKYYADSVKGRFTISRDNSKNTLFLQMNSLKPEDSAVYHCVKVGWTLVGDGVDMWGQGTLVTVSS
VL: QPVLTQSPSSLSASVGDRVTISCRASQGISHYLAWYQQQPGKVPKLLIYAASTLQSGVPSRFSGSGSGTDFTLTISSLQPEDVATYYCQKYNGAPFTFGPGTKVDIK
B3: SA-13 (antibody, V domains shown)
VH: QVQLVESGGGLVRPGGSLRLSCAASGFTFSEYYMSWIRQAPGKGLEWLSYISSSGTTIGHADSLKGRFTISRDNARNSLFLQMNSLRAEDTAVYYCARDGVGGPRARYDAFDIWGQGTLVTVSS
VL: QSVLTQPPSVSGAPGQRVTISCTGTYSNIGAGYDVHWYQQLPGRAPKLLIYGNRNRPSGVPDRFSGSKSGTSASLAITGLQAEDEADYYCQSHDSSLSGSVFGGGTKVTVL

In the test the target is LukAB heterodimer (Staphylococcus aureus). Description: ELISA, immobilized LukAB, anti-human IgG-peroxidase detection. (In an ELISA, binding on a coated surface is turned into a signal by an enzyme label.)
With B1, the EC50 is 0.3 µg/mL. As for B2, the figure is 1.5 µg/mL; as for B3, 0.8 µg/mL.

Broadly, the EC50 is the concentration giving half of the maximal effect. A higher EC50 goes with weaker potency.
